In test [1] the target is T1, antigen protein TF (UniProt P13726 33-251, limits assumed).
T1 construct: Soluble TF used in ELISA coating and BLI; also called TF protein; Tissue Factor
The test is described as follows: BLI (Fortebio), antibody on ProA sensor, 1:1 model. (In BLI a coated tip is dipped into the sample, and binding shifts an interference pattern.)

Test [2] addresses T1, antigen protein TF. The test is described as follows: ELISA, TF coated at 1 µg/mL, HRP-Protein A detection. On the technique in general: An ELISA detects its analyte on a solid surface through an enzyme-linked reagent.
In test [3] the target is T2, Tissue Factor on MDA-MB-231 cells (UniProt P13726 33-295, limits assumed).
T2 construct: whole, on cells
The test is described as follows: flow cytometry on MDA-MB-231 cells, Alexa Fluor 488 anti-human IgG. In general terms: Flow cytometry measures light scatter and fluorescence of single cells or particles in a stream.

Some results are limits rather than exact numbers.

T1 sequence (P13726 33-251 limits assumed): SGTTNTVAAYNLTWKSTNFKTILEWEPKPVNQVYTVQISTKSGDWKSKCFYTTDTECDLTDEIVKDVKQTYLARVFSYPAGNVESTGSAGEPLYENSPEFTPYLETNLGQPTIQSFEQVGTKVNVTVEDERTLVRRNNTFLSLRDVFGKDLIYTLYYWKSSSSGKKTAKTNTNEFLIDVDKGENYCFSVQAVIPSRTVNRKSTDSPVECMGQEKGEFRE
T2 sequence (P13726 33-295 limits assumed): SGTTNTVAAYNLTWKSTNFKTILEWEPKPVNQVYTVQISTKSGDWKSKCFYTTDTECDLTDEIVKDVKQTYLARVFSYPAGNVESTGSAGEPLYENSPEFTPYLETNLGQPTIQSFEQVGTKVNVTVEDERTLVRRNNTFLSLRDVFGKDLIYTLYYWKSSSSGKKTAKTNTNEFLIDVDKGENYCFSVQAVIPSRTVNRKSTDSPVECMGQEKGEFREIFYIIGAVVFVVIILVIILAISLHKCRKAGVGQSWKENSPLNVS

B1: h1849-H2L1 (antibody, human IgG1, kappa, V domains shown)
VH: EVQLVESGGGVVQPGRSLRLSCAASGFTFSDYNMAWIRQAPGKGLEWVAAIIYDGTRTYYRDSVKGRFTISRDNSKSTLYLQMDSLRAEDTAVYYCATGDSYTNFAYWGQGTLVTVSS
VL: EIVLTQSPTFLSASVGDRVTITCRASSSLSYMHWYQQKPGTSPKLLIYETSKLQSGVPSRFSGSGSGTSFTLTIDSLQPEDFATYYCQQGNSYPRTFGGGTKVEIKR
notes: also called humanized anti-TF antibody
As to B1, in test [1], the dissociation constant Kd (in general, the equilibrium constant for the complex coming apart) was determined as 0.43 nM; the off-rate constant (koff) (usually a measure of how fast the partners let go of each other) amounted to 0.000169 s⁻¹; the association rate constant (kon) (as a rule, the rate constant with which the complex forms) worked out at 392000 M⁻¹ s⁻¹. In addition, it took 0.0155 µg/mL to reach a half-maximal effect in test [2] (EC50). Further, in test [3], the EC50 (in general, the concentration needed to bring the measured effect to its halfway point) was 1.13 µg/mL.

B2: h1849-H3L3 (antibody, human IgG1, kappa, V domains shown)
VH: EVQLVESGGGVVQPGRSLRLSCAASGFTFSDYNMAWIRQAPGKGLEWVAAIIYDGTRTYYRDSVKGRFTISRDNSKSTLYLQMNSLRAEDTAVYYCATGDSYTNFAYWGQGTLVTVSS
VL: EIVLTQSPTSLSASVGDRVTITCRASSSLSYMHWYQQKPGTSPKLLIYETSKLESGVPSRFSGSGSGTDFTLTIDSLQPEDFATYYCQQGNSYPRTFGGGTKVEIKR
notes: as for B1
Turning to B2, in test [1], the koff is < 1e-07 s⁻¹ and the kon worked out at 324000 M⁻¹ s⁻¹. In test [2], the EC50 was 0.0191 µg/mL. In test [3], this molecule registered a half-maximal effective concentration (EC50) of 2.3 µg/mL.

Values taken from patent EP4796557A1 (Unovel (Shanghai) Biopharma Co., Ltd., dated 2025).
